The target of the assay is human serum albumin (human, UniProt P02768 25-609). Put plainly: phase separation pull-down with 0.6 M NaCl and centrifugation, supernatant and pellet on SDS-PAGE.

Data on one molecule can be found in patent US20210261626A1 (DONALDSON, published 2021).

Chain of human serum albumin (P02768 25-609 limits assumed): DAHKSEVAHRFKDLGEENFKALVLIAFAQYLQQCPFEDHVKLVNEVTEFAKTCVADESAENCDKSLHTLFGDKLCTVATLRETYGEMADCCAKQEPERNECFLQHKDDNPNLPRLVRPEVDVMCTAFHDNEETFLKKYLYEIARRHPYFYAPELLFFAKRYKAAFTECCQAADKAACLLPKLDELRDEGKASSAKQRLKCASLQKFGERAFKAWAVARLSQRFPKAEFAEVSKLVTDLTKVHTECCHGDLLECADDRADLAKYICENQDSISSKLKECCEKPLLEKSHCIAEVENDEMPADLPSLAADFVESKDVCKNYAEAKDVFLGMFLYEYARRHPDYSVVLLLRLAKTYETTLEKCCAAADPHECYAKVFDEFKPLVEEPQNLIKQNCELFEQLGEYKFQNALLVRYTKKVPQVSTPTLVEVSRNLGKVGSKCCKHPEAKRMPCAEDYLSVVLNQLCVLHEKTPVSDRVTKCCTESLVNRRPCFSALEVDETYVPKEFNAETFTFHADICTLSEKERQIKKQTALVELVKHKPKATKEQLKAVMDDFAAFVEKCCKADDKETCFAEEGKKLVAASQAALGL

B1: ELP1,80-CapG (designed binder)
chain: MSKGPGVGVPGLGVPGVGVPGLGVPGVGVPGVGVPGLGVPGVGVPGLGVPGVGVPVGVPGLGVPGVGVPGLGVPGVGVPGVGVPGLGVPGVGVPGLGVPGVGVPVGVPGLGVPGVGVPGLGVPGVGVPGVGVPGLGVPGVGVPGLGVPGVGVPVGVPGLGVPGVGVPGLGVPGVGVPGVGVPGLGVPGVGVPGLGVPGVGVPVGVPGLGVPGVGVPGLGVPGVGVPGVGVPGLGVPGVGVPGLGVPGVGVPVGVPGLGVPGVGVPGLGVPGVGVPGVGVPGLGVPGVGVPGLGVPGVGVPVGVPGLGVPGVGVPGLGVPGVGVPGVGVPGLGVPGVGVPGLGVPGVGVPVGVPGLGVPGVGVPGLGVPGVGVPGVGVPGLGVPGVGVPGLGVPGVGVPGTYKLILNGKTLKGETTTEAVDAATAEKVFKQYANDNGVDGEWTYDDATKTFTVTEG
notes: Expressed in E. coli; also called fusion comprised of an optimal ELP and a Protein G domain
In the case of B1, the binding result is “no binding”.
